Assay results from article PMC8983682 (2022).

Molecular target: N1-MI15-WT (recombinant soluble NA head of A/Michigan/45/2015 fused to hVASP) (influenza A virus A/Michigan/45/2015)
Assay: BLI

Binder | Kd [nM]
1G01 IgG (antibody, V domains shown) VH: EVQLVESGGRALRPGGSLRLSCAASGFKFDDYAMSWVRQVPGKGLEFVSGLNWNGDITAYTDSVKGRFTVSRDNAKNSLYLHINSPKPEDTALYYCARTSSWGDYTRGPEPKITWYFDLWGRGTLVTVSS VL: DIQLTQSPSFLSASVGDRITITCRASQGIDGYLAWYQQRPGKAPNLLIYAASLLQSGVPSRFSGSGYGTEFTLTISSLQPEDFATYYCQHLDSYPLFTFGPGTKVDIK | < 0.001
CD6 IgG (antibody, V domains shown) VH: QVKLQESGGGLVQPKGSLKLSCAASGFTFNTYAMNWVRQAPGKGLEWVARIRSKSNNYATFYADSVKDRFTISRDDSQSMLYLQMHNLKTDDTAMYYCVRPSIYYYASGYLDVWGAGTTVTVSS VL: QIVLSQSPAILSASPGEKVTMTCRTSSSVSYMHWYQQKPGSSPKPWIYATSNLASGVPFRFSGSGSGTSYSLTISRVEAEDAATYYCQQWNSNPPTFGGGTKLEIK | 1.3
